Experimental data as given in publication PMC9935730.

Biological target: Recombinant full-length Pin1, N-terminally His6-tagged (human) (UniProt Q13526)
Assay: SDS-PAGE and western blot; fractions eluted from the HisTrapHP column with imidazole, 15% SDS-PAGE, HRP conjugated anti-His antibody; second band seen in the more concentrated fractions

- stoichiometry N: 2
Substance: Recombinant full-length Pin1, N-terminally His6-tagged (from UniProt Q13526 1-163) (enzyme)
